Experimental data: patent US20250057918A1 (YALE UNIVERSITY, published 2025)

Legend:
[1] = target: T1, mouse IL-18BP (amino acids 31-194) (mouse, UniProt Q9Z0M9 29-193, biotinylated on the AviTag (BirA ligase)); experiment: SPR; KD IL-18BP / KD IL-18Rα (30 µM used for NBD)
T1 construct: Secreted decoy receptor; made in Expi293 cells (H7 signal peptide); the stated range is the same as for the human protein; also called mIL-18BP
T1 sequence: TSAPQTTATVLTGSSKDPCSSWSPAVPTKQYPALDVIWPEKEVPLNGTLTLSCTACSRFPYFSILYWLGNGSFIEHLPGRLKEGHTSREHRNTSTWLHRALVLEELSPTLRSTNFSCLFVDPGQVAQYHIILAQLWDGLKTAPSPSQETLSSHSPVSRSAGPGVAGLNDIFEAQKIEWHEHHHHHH
Procedure: By contrast, very little binding is observed with the same variants and mIL-18BP (right). (FIG. 11B) Representative surface plasmon resonance sensorgrams between immobilized biotinylated mIL-18BP and the murine DR-IL-18 variants.
Experiments were conducted using a Biacore™ T100 (Protein analysis interaction system) and carried out at 25° C. Biotinylated IL-18Rα or TL-18BP were immobilized onto a Biacore™ biotin capture chip (Series S CAP sensor chip, GE Healthcare) to yield an Rmax of ˜50 RU (IL-18Rα) or ˜10 RU (IL-18BP). Measurements were made with serial dilutions of the IL-18 variants in HEPES buffered Saline-P+ buffer (10 mM HEPES pH 7.4, 150 mM NaCl, 0.005% surfactant P20). The surface was regenerated by three 60-see injections of regeneration buffer (3/4 (v/v) 8M guanidine hydrochloride with 1/4 (v/v) 1M sodium hydroxide). Experiments were performed in multiple channels simultaneously for increased observations. All data were analyzed with the Biacore™ T100 evaluation software version 2.0 with a 1:1 Langmuir binding model.

[2] = target: T1, mouse IL-18BP (amino acids 31-194); experiment: on-yeast isotherms; KD IL-18BP / KD IL-18Rα (10 µM used for NBD)

B1: mE8 (ligand)
chain: NFGRLHCTTAVIRNINDQVLFVDKRQPVFEDMTDIDQSASEPQTRLIIYVYTDGRRRGKAVTLSVKDSKMSTLSCKNKIISFEEMDPPENIDDIQSDLIFFQKKVPGHDKMEFESSLYEGHFLACQKEDDAFKLILKKKDENGDKSVMFTLTNLHQS
notes: recombinant with C-terminal hexahistidine tag in SPR
KD ratio: IL-18BP/IL-18Rα [1]: > 17800
KD ratio: IL-18BP/IL-18Rα [2]: > 238
